According to US20110262445A1:

Molecular target: human IL-12, IL-23, IL-12p40
Assay: SPR

Kd: 0.04 to 0.07 nM
B1: Antibody 1 (antibody, human IgG1, kappa, V domains shown)
VH: EVQLQQSGADLVRSGASIKLSCTASGFNIKDYYMHWVKQRPEQGLEWIGWIDPENGDTEYAPKFQGKATMTADTSSNTAYLQLSSLTSEDTAVYYCNACKELRYFDVWGAGTTVTVSS
VL: DIVLTQSPATLSVTPGDSVSLSCRASQSISINLHWYQQKSHESPRLLIKFASQSISGIPSRFSGYGSGTDFTLSINSVETEDFGRYFCQQSNSWPLTFGAGTKLELKR
